Target: the molecule itself
Test: SEC

B1: DNAJA2 (wild-type, class A J-domain protein) (natural protein)
chain: not shown
modifications: Alexa Fluor-488 label in the fluorescence anisotropy assays (site not stated)
stoichiometry N: 2
